# Assay results reported in patent US20150344570A1 (published 2015).
# T1: FcγRIIb (human, UniProt P31994 43-217)
# T1 construct: extracellular domain; Soluble extracellular domain with a C-terminal His tag, expressed in FreeStyle293 cells; also called FcgRIIb; 2b; not shown: His tag attached to the C terminus
# T1 sequence (looked up): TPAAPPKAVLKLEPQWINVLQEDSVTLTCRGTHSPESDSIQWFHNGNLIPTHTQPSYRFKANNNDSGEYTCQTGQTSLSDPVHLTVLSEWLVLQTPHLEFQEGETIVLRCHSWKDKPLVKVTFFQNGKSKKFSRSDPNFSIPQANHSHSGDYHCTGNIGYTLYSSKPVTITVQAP
# B1: GpH7-A5/GpH7-B3 variant P238_03V/GpL16-k0 (antibody, human IgG1, kappa)
# heavy 1: not shown
# heavy 2: not shown
# light: DIVMTQSPLSLPVTPGEPASISCQASESLVHSNRNTYLHWYLQKPGQSPQLLIYKVSNRFSGVPDRFSGSGSGTDFTLKISRVEAEDVGVYYCSQNTHVPPTFGQGTKVEIERTVAAPSVFIFPPSDEQLKSGTASVVCLLNNFYPREAKVQWKVDNALQSGNSQESVTEQDSKDSTYSLSSTLTLSKADYEKHKVYACEVTHQGLSSPVTKSFNRGEC
# notes: Heterodimerized anti-glypican-3 IgG1; the mutation is in the GpH7-B3 chain only; also called He Ab
# B2: GpH7-A5/GpH7-B3 variant P238_18N/GpL16-k0 (antibody, human IgG1, kappa)
# heavy 1: not shown
# heavy 2: not shown
# light: B1 light
# notes: as for B1
# B3: GpH7-A5/GpH7-B3 variant P238_07I/GpL16-k0 (antibody, human IgG1, kappa)
# heavy 1: not shown
# heavy 2: not shown
# light: B1 light
# notes: as for B1
# B4: GpH7-A5/GpH7-B3 variant P238_16H/GpL16-k0 (antibody, human IgG1, kappa)
# heavy 1: not shown
# heavy 2: not shown
# light: B1 light
# notes: as for B1
# B5: GpH7-A5/GpH7-B3 variant P238_19Q/GpL16-k0 (antibody, human IgG1, kappa)
# heavy 1: not shown
# heavy 2: not shown
# light: B1 light
# notes: as for B1
# B6: GpH7-A5/GpH7-B3 variant P238_08L/GpL16-k0 (antibody, human IgG1, kappa)
# heavy 1: not shown
# heavy 2: not shown
# light: B1 light
# notes: as for B1
# B7: GpH7-A5/GpH7-B3 variant P238_14T/GpL16-k0 (antibody, human IgG1, kappa)
# heavy 1: not shown
# heavy 2: not shown
# light: B1 light
# notes: as for B1
# B8: GpH7-A5/GpH7-B3 variant P238_20W/GpL16-k0 (antibody, human IgG1, kappa)
# heavy 1: not shown
# heavy 2: not shown
# light: B1 light
# notes: as for B1
# B9: GpH7-A5/GpH7-B3 variant S239_05P/GpL16-k0 (antibody, human IgG1, kappa)
# heavy 1: not shown
# heavy 2: not shown
# light: B1 light
# notes: as for B1
# B10: GpH7-A5/GpH7-B3 variant P238_06M/GpL16-k0 (antibody, human IgG1, kappa)
# heavy 1: not shown
# heavy 2: not shown
# light: B1 light
# notes: as for B1
# B11: GpH7-A5/GpH7-B3 variant S239_03V/GpL16-k0 (antibody, human IgG1, kappa)
# heavy 1: not shown
# heavy 2: not shown
# light: B1 light
# notes: as for B1
# B12: GpH7-A5/GpH7-B3 variant P238_13S/GpL16-k0 (antibody, human IgG1, kappa)
# heavy 1: not shown
# heavy 2: not shown
# light: B1 light
# notes: as for B1
# B13: GpH7-A5/GpH7-B3 variant P238_12R/GpL16-k0 (antibody, human IgG1, kappa)
# heavy 1: not shown
# heavy 2: not shown
# light: B1 light
# notes: as for B1
# B14: GpH7-A5/GpH7-B3 variant S239_01G/GpL16-k0 (antibody, human IgG1, kappa)
# heavy 1: not shown
# heavy 2: not shown
# light: B1 light
# notes: Heterodimerized anti-glypican-3 IgG1; also called He Ab
# B15: GpH7-A5/GpH7-B3 variant D265_01G/GpL16-k0 (antibody, human IgG1, kappa)
# heavy 1: not shown
# heavy 2: not shown
# light: B1 light
# notes: as for B1
# B16: GpH7-A5/GpH7-B3 variant P238_11K/GpL16-k0 (antibody, human IgG1, kappa)
# heavy 1: not shown
# heavy 2: not shown
# light: B1 light
# notes: as for B1
# B17: GpH7-A5/GpH7-B3 variant S239_04F/GpL16-k0 (antibody, human IgG1, kappa)
# heavy 1: not shown
# heavy 2: not shown
# light: B1 light
# notes: as for B1
# Biological target: T2, FcγRIIIa (human, UniProt P08637 17-208)
# T2 construct: extracellular domain; Soluble extracellular domain with a C-terminal His tag; also called FcgRIIIa; 3a; not shown: His tag attached to the C terminus
# Assay: SPR (Biacore), antibody captured on chip, FcγR as analyte
# T2 sequence (P08637 17-208): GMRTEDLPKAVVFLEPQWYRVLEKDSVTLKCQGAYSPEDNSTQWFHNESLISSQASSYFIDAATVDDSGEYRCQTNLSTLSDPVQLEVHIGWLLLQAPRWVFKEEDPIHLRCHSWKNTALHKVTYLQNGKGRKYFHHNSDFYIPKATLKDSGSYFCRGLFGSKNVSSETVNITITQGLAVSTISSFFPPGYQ
row,He/Con_3a,Binder
1,"43.8 relative binding, GpH7-A5/GpH7-B3/GpL16-k0 = 100",B1
2,"40.4 relative binding, GpH7-A5/GpH7-B3/GpL16-k0 = 100",B2
3,"27.8 relative binding, GpH7-A5/GpH7-B3/GpL16-k0 = 100",B3
4,"30.7 relative binding, GpH7-A5/GpH7-B3/GpL16-k0 = 100",B4
5,"55.8 relative binding, GpH7-A5/GpH7-B3/GpL16-k0 = 100",B5
6,"75.5 relative binding, GpH7-A5/GpH7-B3/GpL16-k0 = 100",B6
7,"28 relative binding, GpH7-A5/GpH7-B3/GpL16-k0 = 100",B7
8,"49.7 relative binding, GpH7-A5/GpH7-B3/GpL16-k0 = 100",B8
9,"14.9 relative binding, GpH7-A5/GpH7-B3/GpL16-k0 = 100",B9
10,"30.5 relative binding, GpH7-A5/GpH7-B3/GpL16-k0 = 100",B10
11,"76.6 relative binding, GpH7-A5/GpH7-B3/GpL16-k0 = 100",B11
12,"44.9 relative binding, GpH7-A5/GpH7-B3/GpL16-k0 = 100",B12
13,"12.2 relative binding, GpH7-A5/GpH7-B3/GpL16-k0 = 100",B13
14,"76.2 relative binding, GpH7-A5/GpH7-B3/GpL16-k0 = 100",B14
15,"4.5 relative binding, GpH7-A5/GpH7-B3/GpL16-k0 = 100",B15
16,"10.4 relative binding, GpH7-A5/GpH7-B3/GpL16-k0 = 100",B16
17,"25.3 relative binding, GpH7-A5/GpH7-B3/GpL16-k0 = 100",B17

# Biological target: T1, FcγRIIb
# Assay: as above
row,He/Con_2b,Binder
1,"120 relative binding, GpH7-A5/GpH7-B3/GpL16-k0 = 100",B1
2,"73.2 relative binding, GpH7-A5/GpH7-B3/GpL16-k0 = 100",B2
3,"80 relative binding, GpH7-A5/GpH7-B3/GpL16-k0 = 100",B3
4,"115 relative binding, GpH7-A5/GpH7-B3/GpL16-k0 = 100",B4
5,"110 relative binding, GpH7-A5/GpH7-B3/GpL16-k0 = 100",B5
6,"204 relative binding, GpH7-A5/GpH7-B3/GpL16-k0 = 100",B6
7,"50.7 relative binding, GpH7-A5/GpH7-B3/GpL16-k0 = 100",B7
8,"123 relative binding, GpH7-A5/GpH7-B3/GpL16-k0 = 100",B8
9,"102 relative binding, GpH7-A5/GpH7-B3/GpL16-k0 = 100",B9
10,"174 relative binding, GpH7-A5/GpH7-B3/GpL16-k0 = 100",B10
11,"108 relative binding, GpH7-A5/GpH7-B3/GpL16-k0 = 100",B11
12,"70.4 relative binding, GpH7-A5/GpH7-B3/GpL16-k0 = 100",B12
13,"51.4 relative binding, GpH7-A5/GpH7-B3/GpL16-k0 = 100",B13
14,"144 relative binding, GpH7-A5/GpH7-B3/GpL16-k0 = 100",B14
15,"16.1 relative binding, GpH7-A5/GpH7-B3/GpL16-k0 = 100",B15
16,"18.1 relative binding, GpH7-A5/GpH7-B3/GpL16-k0 = 100",B16
17,"44.1 relative binding, GpH7-A5/GpH7-B3/GpL16-k0 = 100",B17

# Biological target: T2, FcγRIIIa
# Assay: SPR; He/Con_3a (FcγRIIIa) divided by He/Con_2b (FcγRIIb)
row,He_3a/2b (IIIa/IIb),Binder
1,0.36 ratio,B1
2,0.55 ratio,B2
3,0.35 ratio,B3
4,0.27 ratio,B4
5,0.51 ratio,B5
6,0.37 ratio,B6
7,0.55 ratio,B7
8,0.4 ratio,B8
9,0.15 ratio,B9
10,0.18 ratio,B10
11,0.71 ratio,B11
12,0.64 ratio,B12
13,0.24 ratio,B13
14,0.53 ratio,B14
15,0.28 ratio,B15
16,0.57 ratio,B16
17,0.57 ratio,B17
